Data set [1] addresses Flag-tagged Nodal precursor (mouse). As to the kind of experiment: non-reducing SDS-PAGE with immunoblot. On the technique in general: Immunoblotting shows a protein as a band on a membrane.
Data set [2] concerns the molecule itself. Put plainly: non-reducing SDS-PAGE with immunoblot.

The stoichiometry N is a count of units in the complex or per binding partner.

The molecule “Flag-tagged Nodal precursor (natural protein)” had a stoichiometry N in data set [1] of 2.

B1: mature MycBMP4 (domain or fragment, mouse, UniProt P21275 293-408, looked up)
chain: SPKHHPQRSRKKNKNCRRHSLYVDFSDVGWNDWIVAPPGYQAFYCHGDCPFPLADHLNSTNHAIVQTLVNSVNSSIPKACCVPTELSAISMLYLDEYDKVVLKNYQEMVVEGCGCR
As to B1, the “stoichiometry N” value in data set [2] was determined as 2.

Source of the values: PMC2148113 (The Journal of Cell Biology, 1999).
